Test results reported in patent US20250115655A1, “PHARMACEUTICALS AND DEVICES FOR THE COVALENT IMMOBILIZATION TO THE EXTRACELLULAR MATRIX BY TRANSGLUTAMINASE” (JULIUS-MAXIMILIANS-UNIVERSITÄT WÜRZBURG, priority 2017, published 2025).
“Also recorded” adds a separate entry of the source.

How the values were obtained:
C2C12 myoblasts = test: Bioactivity of ECM-immobilized IGF-I: C2C12 myoblast proliferation (WST-1); type: cell-based; conditions: mouse myoblast cells, 48 hours
Description: (§1) To test this strategy, native IGF-I was immobilized onto fibroblast derived, isolated extracellular matrix in presence of Factor XIIIa (FIGS. 6A-6B). […] The transamidation reaction was carried out at 37° C. for 10 min in Tris buffer at pH 7.6 and is suitable for performance under physiological conditions. […] Bioactivity of immobilized IGF-I was confirmed by promoting cell proliferation of mouse myoblast cells (FIGS. 7A-7B).
FIGS. 7A-7B: Bioactivity of ECM-immobilized IGF-I. (7A) Native IGF-I was coupled to ECM in presence/absence of factor XIIIa, followed by seeding of C2C12 myoblasts on this naturally derived matrix and cell proliferation was measured after 48 hours incubation using WST-1 (Data are shown as mean±STDEV, n=3; ** p<0.01). (7B) The cells were fixed, stained with actin (green) and DAPI (cell nuclei, blue) and ECM-immobilized IGF-I was visualized using a monoclonal IGF-I antibody (red).

fibronectin = test: Immobilization of native IGF-I on fibroblast derived isolated ECM and soluble fibronectin in presence of Factor XIIIa; type: biochemical; conditions: 37° C., 10 min, antibody staining (FIG. 6A)
Description: as §1
FIGS. 6A-6B: (6A) Confocal laser scanning microscopy images of IGF-I immobilized on isolated ECM. The immobilized IGF-I was visualized with a monoclonal IGF-I antibody (green) und co-localized with fibronectin (red). (6B) Western Blot of human IGF-I after incubation with fibronectin in presence (lane 1) and absence (lane 2) of factor XIIIa with unreacted IGF-I as control (lane 3).

Factor XIIIa = biological target: T1, Factor XIIIa (Homo sapiens, UniProt P00488); test: FXIIIa-mediated coupling of IGF-I to linker containing the glutamine substrate sequence (SDS-PAGE, western blot, HPLC kinetics); type: biochemical
T1 construct: purchased Fibrogammin®
T1 sequence (P00488 39-732 limits assumed): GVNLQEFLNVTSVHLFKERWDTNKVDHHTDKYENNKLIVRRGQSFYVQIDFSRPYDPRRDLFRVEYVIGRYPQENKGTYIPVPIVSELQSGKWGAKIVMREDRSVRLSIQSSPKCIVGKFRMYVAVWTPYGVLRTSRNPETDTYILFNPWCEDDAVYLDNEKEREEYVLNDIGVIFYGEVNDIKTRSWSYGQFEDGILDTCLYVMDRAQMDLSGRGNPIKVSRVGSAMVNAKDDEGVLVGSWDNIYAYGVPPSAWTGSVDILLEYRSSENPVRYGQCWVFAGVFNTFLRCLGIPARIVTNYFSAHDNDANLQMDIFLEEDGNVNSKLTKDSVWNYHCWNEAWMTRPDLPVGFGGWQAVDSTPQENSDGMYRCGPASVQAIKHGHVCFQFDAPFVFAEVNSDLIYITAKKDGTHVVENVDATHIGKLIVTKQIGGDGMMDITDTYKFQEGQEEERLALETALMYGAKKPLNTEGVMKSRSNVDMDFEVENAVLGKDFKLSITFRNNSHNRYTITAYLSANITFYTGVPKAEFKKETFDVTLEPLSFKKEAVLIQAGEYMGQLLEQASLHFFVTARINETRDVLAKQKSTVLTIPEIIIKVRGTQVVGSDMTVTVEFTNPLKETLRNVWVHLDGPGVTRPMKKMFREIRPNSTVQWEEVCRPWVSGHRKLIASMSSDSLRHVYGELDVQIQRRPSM
Description: The specificity and efficiency of the reaction was analyzed and compared to the isolated D domain (SEQ ID NO: 1) using a linker containing the glutamine substrate sequence derived from α-2 plasmin inhibitor and analyzed by SDS-PAGE and by western blotting using a monoclonal anti-IGF-I antibody (FIG. 4A). The transamidation was carried out at 37° C. for 5 min in Tris buffer (20 mM Tris-HCL, 150 mM sodium chloride, pH 7.6) with 0.1 M calcium chloride in presence of factor XIIIa (Fibrogammin®, activated with 0.02 U/ml thrombin). The resulting conjugate was analyzed by MALDI-MS and the site-specific conjugation confirmed. […] FIGS. 4A-4B: (4A) SDS PAGE and immunoblotting of human IGF-I after incubation with the glutamine substrate peptide modelled from the N-terminus of alpha-2 plasmin inhibitor (SEQ ID NO: 11) attached to a protease cleavable linker (PCL) in absence and presence of FXIIIa. (4B) HPLC analysis of IGF-I coupling kinetics mediated by […].

[1] = doses of 0.12 mg/kg, subcutaneous injection; cited from earlier work

| crosslinking of the complete protein, reaction kinetics by HPLC (Factor XIIIa; 37° C., Tris buffer pH 7.6 (FIG. 4B)) | kinetics of the coupling reaction (Factor XIIIa; human factor XIIIa) [min] | Substance | bioactivity of immobilized IGF-I (cell proliferation) (C2C12 myoblasts) | co-localization with fibronectin after conjugation to the ECM (fibronectin) | half-life [1] [h] |
| --- | --- | --- | --- | --- | --- |
| exceptionally fast and efficient | < 2 | IGF-I: Human IGF-I, peptide hormone of 7.6 kDa, 70 amino acids | confirmed; also recorded: preserved | confirmed the co-localization with fibronectin |  |
|  |  | Mecasermin: Recombinant human IGF-I |  |  | 5.8 |
